Test results reported in article PMC3605031, “Mitogen-Activated Protein Kinase p38b Interaction with Delta Class Glutathione Transferases from the Fruit Fly, Drosophila melanogaster” (Journal of Insect Science, 2012).
Read-outs that look alike come from different tables or passages of the source.

Key:
[1] = target: Drosophila melanogaster p38b mitogen-activated protein kinase (D. melanogaster) (UniProt O61443)
[2] = target: Drosophila melanogaster p38b mitogen-activated protein kinase (D. melanogaster) (UniProt O61443); remark: listed apart in the source
[3] = target: Drosophila melanogaster p38b mitogen-activated protein kinase (D. melanogaster) (UniProt O61443); remark: listed apart in the source

Chain of UniProt O61443 (O61443 whole entry): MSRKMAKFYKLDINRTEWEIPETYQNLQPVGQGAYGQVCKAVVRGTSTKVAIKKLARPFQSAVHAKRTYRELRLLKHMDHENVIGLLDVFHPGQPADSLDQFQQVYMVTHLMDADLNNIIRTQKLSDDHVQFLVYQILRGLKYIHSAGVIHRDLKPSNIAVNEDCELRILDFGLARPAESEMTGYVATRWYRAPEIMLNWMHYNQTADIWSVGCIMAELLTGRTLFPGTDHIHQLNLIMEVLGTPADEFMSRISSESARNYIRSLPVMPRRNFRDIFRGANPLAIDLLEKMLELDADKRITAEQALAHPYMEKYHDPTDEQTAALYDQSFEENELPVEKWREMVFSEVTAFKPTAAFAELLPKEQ

fold change of p38b kinase activity toward ATF2 with GST at 1:1 molar ratio (ADP Quest assay) [1] | fold change of p38b kinase activity toward jun with GST at 1:1 molar ratio (ADP Quest assay) [1] | increase of GST activity toward DCNB after incubation with p38b at 1:1 molar ratio [2] | Molecule | also measured
7.1 fold | 10 fold | – | Drosophila melanogaster Delta class glutathione transferase DmGSTD11b (enzyme) | –
– | – | 10 % increase | Drosophila melanogaster Delta class glutathione transferase DmGSTD7 (enzyme) MPNLDLYNFPMAPASRAIQMVAKALGLELNSKLINTMEGDQLKPEFVRINPQHTIPTLVDNGFVIWESRAIAVYLVEKYGKPDSPLYPNDPQKRALINQRLYFDMGTLYDALTKYFFLIFRTGKFGDQEALDKVNSAFGFLNTFLEGQDFVAGSQLTVADIVILATVSTVEWFSFDLSKFPNVERWLKNAPKVTPGWEQNLESLQQGKKFLQDLQAAKEKEVKA | –
1.4 fold | 1.6 fold | – | Drosophila melanogaster Delta class glutathione transferase DmGSTD5 (enzyme) MDFYYSPRGSGCRTVIMVAKALGVKLNMKLLNTLEKDQLKPEFVKLNPQHTIPTLVDNGFSIWESRAIAVYLVEKYGKDDTLFPKDPKKQALVNQRLYFDMGTLYDSFAKYYYPLFHTGKPGSDEDFKKIESSFEYLNIFLEGQNYVAGDHLTVADIAILSTVSTFEIFDFDLNKYPNVARWYANAKKVTPGWEENWKGAVELKGVFDARQAAAKQ | decrease of GST activity toward CDNB after incubation with p38b at 1:1 molar ratio, as told in the discussion [3]: 8 % decrease; decrease of GST activity toward DCNB after incubation with p38b at 1:1 molar ratio, as told in the discussion [3]: 36 % decrease; fold change of p38b kinase activity toward jun with GST at 1:1 molar ratio (ADP Quest assay), as told in the discussion [3]: 1.5 fold; decrease of GST activity toward CDNB after incubation with p38b at 1:1 molar ratio [2]: 10 % decrease; decrease of GST activity toward DCNB after incubation with p38b at 1:1 molar ratio [2]: 40 % decrease
6.5 fold | 8.1 fold | 30 % increase | Drosophila melanogaster Delta class glutathione transferase DmGSTD8 (enzyme) MDFYYHPCSAPCRSVIMTAKALGVDLNMKLLKVMDGEQLKPEFVKLNPQHCIPTLVDDGFSIWESRAILIYLVEKYGADDSLYPSDPQKKAVVNQRLYFDMGTLFQSFVEAIYPQIRNNHPADPEAMQKVDSAFGHLDTFLEDQEYVAGDCLTIADIALLASVSTFEVVDFDIAQYPNVARWYENAKEVTPGWEENWDGVQLIKKLVQERNE | –
1.8 fold | 2.6 fold | – | Drosophila melanogaster Delta class glutathione transferase DmGSTD3 (enzyme) MVGKALGLEFNKKIINTLKGEQMNPDFIKINPQHSIPTLVDNGFTIWESRAILVYLVEKYGKDDALYPKDIQKQAVINQRLYFDMALMYPTLANYYYKAFTTGQFGSEEDYKKVQETFDFLNTFLEGQDYVAGDQYTVADIAILANVSNFDVVGFDISKYPNVARWYDHVKKITPGWEENWAGALDVKKRIEEKQNAAK | –
– | – | 37 % increase | Drosophila melanogaster Delta class glutathione transferase DmGSTD2 (enzyme) MDFYYMPGGGGCRTVIMVAKALGLELNKKLLNTMEGEQLKPEFVKLNPQHTIPTLVDNGFSIWESRAIAVYLVEKYGKDDYLLPNDPKKRAVINQRLYFDMGTLYESFAKYYYPLFRTGKPGSDEDLKRIETAFGFLDTFLEGQEYVAGDQLTVADIAILSTVSTFEVSEFDFSKYSNVSRWYDNAKKVTPGWDENWEGLMAMKALFDARKLAAK | decrease of GST activity toward CDNB after incubation with p38b at 1:1 molar ratio [3]: 5 % decrease
